Measurements taken from patent US20190077876A1 (AbbVie / Abbott, published 2019).
Residue numbers refer to the chain shown, from its start.

Key:
human CLDN9 protein [1] = molecular target: T1, human CLDN9 protein (human, UniProt O95484 1-217); assay: flow cytometry on cells overexpressing human CLDN9; 10 µg/mL control antibody, Alexa 647 anti-mouse secondary; single point
T1 sequence (looked up): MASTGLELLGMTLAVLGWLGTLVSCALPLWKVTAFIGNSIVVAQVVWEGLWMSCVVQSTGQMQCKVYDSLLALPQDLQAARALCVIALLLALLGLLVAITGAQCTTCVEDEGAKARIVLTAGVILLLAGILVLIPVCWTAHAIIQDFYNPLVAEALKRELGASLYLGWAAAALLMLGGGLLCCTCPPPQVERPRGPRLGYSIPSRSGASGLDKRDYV

human CLDN6 protein [2] = molecular target: T2, human CLDN6 protein (human, UniProt P56747 1-220); assay: flow cytometry on cells overexpressing human CLDN6; 10 µg/mL control antibody, Alexa 647 anti-mouse secondary; single point
T2 sequence (looked up): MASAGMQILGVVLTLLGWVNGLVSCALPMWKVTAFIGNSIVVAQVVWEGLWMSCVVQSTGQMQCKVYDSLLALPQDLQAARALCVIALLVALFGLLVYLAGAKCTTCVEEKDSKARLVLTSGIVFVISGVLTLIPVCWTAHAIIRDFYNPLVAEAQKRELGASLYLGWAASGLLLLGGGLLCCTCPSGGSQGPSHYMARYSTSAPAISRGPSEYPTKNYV

human CLDN4 protein [3] = molecular target: T3, human CLDN4 protein (human, UniProt O14493 1-209); assay: flow cytometry on cells overexpressing human CLDN4; 10 µg/mL control antibody, Alexa 647 anti-mouse secondary; single point
T3 sequence (looked up): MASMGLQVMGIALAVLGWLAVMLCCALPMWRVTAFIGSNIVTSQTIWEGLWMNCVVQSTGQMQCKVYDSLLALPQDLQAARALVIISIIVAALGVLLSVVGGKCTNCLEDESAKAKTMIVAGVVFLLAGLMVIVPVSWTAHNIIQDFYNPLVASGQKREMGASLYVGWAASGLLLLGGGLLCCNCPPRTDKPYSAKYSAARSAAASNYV

human CLDN6 protein [4] = molecular target: T2, human CLDN6 protein; assay: cell-based or functional assay
human CLDN9 protein [5] = molecular target: T1, human CLDN9 protein; assay: flow cytometry on cells overexpressing human CLDN9; 10 µg/mL purified antibody, Alexa 647 anti-mouse secondary; single point
human CLDN4 protein [6] = molecular target: T3, human CLDN4 protein; assay: flow cytometry on cells overexpressing human CLDN4; Alexa 647 anti-mouse secondary; single point
human CLDN6 protein [7] = molecular target: T2, human CLDN6 protein; assay: flow cytometry on cells overexpressing human CLDN6; 10 µg/mL purified antibody, Alexa 647 anti-mouse secondary; single point
human CLDN6 protein [8] = molecular target: T2, human CLDN6 protein; assay: cell-based or functional assay; remark: listed apart in the source
human CLDN9 protein [9] = molecular target: T1, human CLDN9 protein; assay: flow cytometry on cells overexpressing human CLDN9; Alexa 647 anti-mouse secondary; single point
human CLDN4 protein [10] = molecular target: T3, human CLDN4 protein; assay: flow cytometry on cells overexpressing human CLDN4; 10 µg/mL purified antibody, Alexa 647 anti-mouse secondary; single point
human CLDN9 protein [11] = molecular target: T1, human CLDN9 protein; assay: cell-based or functional assay
human CLDN4 protein [12] = molecular target: T3, human CLDN4 protein; assay: cell-based or functional assay

Which results are given for mIgG2b control (antibody)?
MFI (human CLDN9 protein [1]): 81; MFI (human CLDN6 protein [2]): 84; MFI (human CLDN4 protein [3]): 73

B1: SC27.108 mouse monoclonal anti-CLDN antibody (antibody, V domains shown)
VH: QVQMQQSGAELVRPGTSVKVSCKASGYAFTNYLIEWVKQRPGQGLEWIGLINPGSGGTNYNEKFKGKATLTADKSSTTAYMQLSSLTSDDSAVYFCARRSPLGSWIYYAYDGVAYWGQGTLVTVSA
VL: EIVLTQSPALMAASPGEKVTITCSVSSSISSSNLHWYQQKSGTSPKLWIYGTSNLASGVPVRFSGSGSGTSYSLTISNMEAEDAATYYCQQWSSYPHTFGGGTKLEIK
notes: also called SC27.109 (identical)
For B1, which “apparent IC50 of saporin-mediated cell killing” value (human CLDN6 protein [4]) is on record?
Its value is 100 nM.

What about the MFI (human CLDN9 protein [5]) of the same molecule?
The MFI was 86.

Does B1 bind (human CLDN4 protein [6])?
Result: no binding (tested: 10 µg/mL)

And the MFI (human CLDN6 protein [7])?
Its MFI is 99700.

And the “apparent IC50 of killing of HEK-293T cells overexpressing hCLDN6; antibody titrated 0.15 to 1000 nM with anti-mouse IgG Fab-saporin, CellTiter-Glo” value (human CLDN6 protein [8])?
The value was 102 nM.

Does B1 bind (human CLDN9 protein [9])?
Result: no binding (tested: 10 µg/mL)

What about the MFI (human CLDN4 protein [10]) of the same molecule?
The MFI was 88.

B2: SC27.201 mouse monoclonal anti-CLDN antibody (antibody, V domains shown)
VL: DIQMTQSSSSFSVSLGDRVTITCKASEDIYNRLAWYQQKPGNAPRLLISGATSLEAGVPSGFSGSGSGKDYTLSITSLQTEDVATYYCQQYWSTPPTFGGGTKLELK
V domain: EVQLQQSGPELVKPGASVKISCKTSGYTFTENIRHWVKQSRGKSLEWIGTINPNNGETRYNQKFKGKATLTVDKSSSTAYMELRSLTSEDSAVYYCTRGITKSPYGMDYWGQGTSITVSS
With B2 as the molecule, how does the MFI (human CLDN9 protein [5]) read?
Its MFI is 7100.

What about the MFI (human CLDN6 protein [7]) of the same molecule?
Its MFI is 29900.

And the “apparent IC50 of killing of HEK-293T cells overexpressing hCLDN9; antibody titrated 0.15 to 1000 nM with anti-mouse IgG Fab-saporin, CellTiter-Glo” value (human CLDN9 protein [11])?
Its value is 155 nM.

And the “apparent IC50 of killing of HEK-293T cells overexpressing hCLDN6; antibody titrated 0.15 to 1000 nM with anti-mouse IgG Fab-saporin, CellTiter-Glo” value (human CLDN6 protein [8])?
Its value is 48.2 nM.

And the “apparent IC50 of killing of HEK-293T cells overexpressing hCLDN4; antibody titrated 0.15 to 1000 nM with anti-mouse IgG Fab-saporin, CellTiter-Glo” value (human CLDN4 protein [12])?
The value was 69.7 nM.

What about the MFI (human CLDN4 protein [10]) of the same molecule?
The MFI was 23100.

B3: SC27.204 mouse monoclonal anti-CLDN antibody (antibody, V domains shown)
VH: EVKVLESGGGLVQPGGSLKLSCAASGFDFSRYWMSWVRQAPGKGLEWIGEINPDSSTINYTPSLKAKFIISRDNAKNTLYLQMSKVRSEDTALYYCTGPAYWGQGTLVTVSA
VL: DIVMTQSQKFMSTSVGDRVSVACKAGQNVGTSVAWYQQKPGHSPKSLIYSASYRYSGVPNRFTGSGSGTDFTLTISNVQSEDLADYFCQQYITYPYTFGGGTKLEII
With B3 as the molecule, how does the MFI (human CLDN9 protein [5]) read?
Its MFI is 23000.

Does B3 bind (human CLDN4 protein [6])?
Result: no binding (tested: 10 µg/mL)

What about the MFI (human CLDN6 protein [7]) of the same molecule?
Its MFI is 106000.

What about the “apparent IC50 of killing of HEK-293T cells overexpressing hCLDN9; antibody titrated 0.15 to 1000 nM with anti-mouse IgG Fab-saporin, CellTiter-Glo” value (human CLDN9 protein [11]) of the same molecule?
The value was 16.9 nM.

What about the “apparent IC50 of killing of HEK-293T cells overexpressing hCLDN6; antibody titrated 0.15 to 1000 nM with anti-mouse IgG Fab-saporin, CellTiter-Glo” value (human CLDN6 protein [8]) of the same molecule?
Its value is 25.2 nM.

What about the MFI (human CLDN4 protein [10]) of the same molecule?
Its MFI is 79.

B4: SC27.104 mouse monoclonal anti-CLDN antibody (antibody, V domains shown)
VH: EVQLQQSGPELVKPGASVKISCKTSGYTFTEYTVHWVKQSHGKSLEWIGGVYPKNGDTTYNQKFRGKATLTVDKSSNTAYMELRSLTSEDSAVYYCTGKDGYDGFAYWGQGTLVTVSA
VL: B2 VL with A56T, G61R, T94N, L106I
For B4, which MFI (human CLDN9 protein [5]) is on record?
Its MFI is 7230.

What about the MFI (human CLDN6 protein [7]) of the same molecule?
Its MFI is 39200.

What about the “apparent IC50 of killing of HEK-293T cells overexpressing hCLDN6; antibody titrated 0.15 to 1000 nM with anti-mouse IgG Fab-saporin, CellTiter-Glo” value (human CLDN6 protein [8]) of the same molecule?
The value was 284 nM.

And the “apparent IC50 of killing of HEK-293T cells overexpressing hCLDN4; antibody titrated 0.15 to 1000 nM with anti-mouse IgG Fab-saporin, CellTiter-Glo” value (human CLDN4 protein [12])?
The value was 969 nM.

What about the MFI (human CLDN4 protein [10]) of the same molecule?
The MFI was 22600.

B5: SC27.105 mouse monoclonal anti-CLDN antibody (antibody, V domains shown)
VH: EVQLQQSGPELVKPGASVKISCKASGYSFTGYYMNWVKQSPEKSLEWIGEINPSTGSTTYNQKFKAKATLTVDKSSSTAYMQLKSLTSEDSAVYYCARRDYYYGSGFYAMDYWGQGTSVTVSS
VL: DVQMTQSPSSLSASLGERVSLTCQASQSVSNNLNWYQQTPGKAPRLLIYGASKLEDGVSSRFSGTGYGTDFTFTISSLEEEDVATYFCLQHRYLWTFGGGTKLEIK
Which results are given for B5?
MFI (human CLDN9 protein [5]): 80; binding result (human CLDN4 protein [6]): no binding (tested: 10 µg/mL); MFI (human CLDN6 protein [7]): 83000; apparent IC50 of killing of HEK-293T cells overexpressing hCLDN6; antibody titrated 0.15 to 1000 nM with anti-mouse IgG Fab-saporin, CellTiter-Glo (human CLDN6 protein [8]): 235 nM; binding result (human CLDN9 protein [9]): no binding (tested: 10 µg/mL); MFI (human CLDN4 protein [10]): 69

B6: SC27.106 (antibody, V domains shown)
VH: EVQLQQSGPELVKPGASVKISCKTSGYTFTEYTMHWVKQSHGKSLEWIGGINPNNGGTNYNQKFKGKATLTVDKSSSTAYMELRSLTSEDSAVYYCARRLITYYAMDYWGQGTSVTVSS
VL: B2 VL with S49C, A56T, G61R, P96L, G100A
notes: also called SC27.106 mouse monoclonal anti-CLDN antibody
Which results are given for B6?
MFI (human CLDN9 protein [5]): 595; MFI (human CLDN6 protein [7]): 55800; MFI (human CLDN4 protein [10]): 1990

B7: SC27.203 (antibody, V domains shown)
VH: B2 V domain with R34I, R41H, T50G, N54I, E57G, R59S, T97A, K102T, G106A, I116V
VL: B2 VL with K39N, A43T, I48M, A56T, G61R, T80I, A84S, K103R, L106I
notes: also called SC27.203 mouse monoclonal anti-CLDN antibody
B7 was tested. Which MFI (human CLDN9 protein [5]) did it give?
Its MFI is 587.

What about the MFI (human CLDN6 protein [7]) of the same molecule?
Its MFI is 47400.

And the MFI (human CLDN4 protein [10])?
The MFI was 2980.
